Source: patent US20170210813A1 (Regeneron, published 2017)
One block for each binder: values may come before it.

Experiments:
hPDGFRb.mmh [1] = biological target: T1, hPDGFRb.mmh (human, UniProt P09619 33-531); experiment: Octet BLI cross-competition, 25 C; hPDGFRb.mmh on anti-Penta-His tips pre-saturated with mAb-1 H4H3374N (row 3)
T1 construct: Soluble monomeric construct; also called soluble human PDGFR-beta.mmh
Experimental: (§1) A cross-competition assay was conducted to assess the ability of select antibodies to compete with one another for binding to human PDGFR-beta. […] Each PDGFR-beta.mmh-coated sensor tip was saturated for 5 min with a first anti-PDGFR-beta antibody (Mab #1; 50 μg/mL). Next, each sensor tip was saturated with a solution of a second anti-PDGFR-beta antibody (Mab #2). The real time response of Mab #2 binding to PDGR-beta.mmh pre-complexed with Mab #1 was then monitored. All assays were performed at 25° C. with a flow rate of 1000 rpm on an Octet RED384 biosensor in Octet HBST buffer according to manufacturer's instructions (ForteBio Corp., Menlo Park, Calif.). Results are illustrated in FIG. 2.

hPDGFRb.mmh [2] = biological target: T1, hPDGFRb.mmh; experiment: Octet BLI cross-competition, 25 C; hPDGFRb.mmh on anti-Penta-His tips pre-saturated with mAb-1 Control I (row 1)
Experimental: as §1

hPDGFRb.mmh [3] = biological target: T1, hPDGFRb.mmh; experiment: SPR, mAb captured, 25 C
Experimental: (§2) Antibodies, expressed as either mouse Fc (prefix H1M; H2M) or human Fc (prefix H4H), were captured on their respective anti-Fc sensor surfaces (Mab capture format). […] Kinetic association (kₐ) and dissociation (kd) rate constants were determined by processing and fitting the data to a 1:1 binding model using Scrubber 2.0 curve fitting software.

human PDGFRb.hFc = biological target: T2, human PDGFRb.hFc (human); experiment: SPR, mAb captured, 25 C
T2 construct: Soluble dimeric construct with human Fc; also called hPDGFRb.hFc
Experimental: as §2

[4] = biological target: T3, Macaca fascicularis PDGFRb.mmh (Macaca fascicularis); experiment: SPR, mAb captured, 25 C
T3 construct: Soluble monomeric construct; also called mfPDGFRb.mmh
T3 chain: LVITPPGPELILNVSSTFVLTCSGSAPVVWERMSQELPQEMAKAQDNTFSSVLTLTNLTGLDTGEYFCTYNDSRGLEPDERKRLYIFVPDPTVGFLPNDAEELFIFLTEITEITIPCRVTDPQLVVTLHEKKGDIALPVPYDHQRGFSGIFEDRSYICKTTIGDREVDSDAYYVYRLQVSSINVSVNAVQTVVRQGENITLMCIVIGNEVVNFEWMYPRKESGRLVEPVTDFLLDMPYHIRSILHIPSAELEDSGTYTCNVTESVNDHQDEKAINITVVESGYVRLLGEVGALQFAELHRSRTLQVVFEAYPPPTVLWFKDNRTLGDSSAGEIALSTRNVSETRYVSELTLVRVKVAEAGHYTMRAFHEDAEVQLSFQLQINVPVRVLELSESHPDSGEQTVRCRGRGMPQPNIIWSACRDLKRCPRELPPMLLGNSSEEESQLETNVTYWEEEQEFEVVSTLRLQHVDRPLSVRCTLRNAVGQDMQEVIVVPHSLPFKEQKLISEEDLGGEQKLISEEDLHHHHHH
Experimental: as §2

[5] = biological target: T4, PDGFR-beta extracellular domain construct D1 (human); experiment: SPR, mAb captured, construct as analyte
T4 chain: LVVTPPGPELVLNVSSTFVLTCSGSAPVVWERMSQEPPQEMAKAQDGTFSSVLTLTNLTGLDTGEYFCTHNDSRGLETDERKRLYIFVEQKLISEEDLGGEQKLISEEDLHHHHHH
Experimental: Four different anti-PDGFR-beta antibodies were tested for binding to the various constructs by surface plasmon resonance (Biacore). Briefly, 150-200 RU's of anti-PDGFR beta antibody was captured via an anti-human Fc CM5 chip. Next, the individual domain constructs, or full-length PDGFR beta, was applied over the antibody-bound surface at a concentration of 50nM. The ability of the various antibodies to bind to the various domain constructs was measured. (−)=No binding observed; (+)=Binding observed; ND=Not determined.

hPDGFRb.mmh [6] = biological target: T1, hPDGFRb.mmh; experiment: blocking ELISA, biot-hPDGFRb.mmh to coated PDGF-BB
hPDGFRb.mmh [7] = biological target: T1, hPDGFRb.mmh; experiment: Octet BLI cross-competition, 25 C; hPDGFRb.mmh on anti-Penta-His tips pre-saturated with mAb-1 H4H3094P (row 5)
Experimental: as §1

hPDGFRb.mmh [8] = biological target: T1, hPDGFRb.mmh; experiment: Octet BLI cross-competition, 25 C; hPDGFRb.mmh on anti-Penta-His tips pre-saturated with mAb-1 H4H3103S (row 4)
Experimental: as §1

hPDGFRb.mmh [9] = biological target: T1, hPDGFRb.mmh; experiment: Octet BLI cross-competition, 25 C; hPDGFRb.mmh on anti-Penta-His tips pre-saturated with mAb-1 H4H3310N (row 9)
Experimental: as §1

hPDGFRb.mmh [10] = biological target: T1, hPDGFRb.mmh; experiment: Octet BLI cross-competition, 25 C; hPDGFRb.mmh on anti-Penta-His tips pre-saturated with mAb-1 H4H3107S (row 7)
Experimental: as §1

hPDGFRb.mmh [11] = biological target: T1, hPDGFRb.mmh; experiment: Octet BLI cross-competition, 25 C; hPDGFRb.mmh on anti-Penta-His tips pre-saturated with mAb-1 H4H3099S (row 6)
Experimental: as §1

- Response of mAb-2 Binding to hPDGFRβ.mmh Pre-Complexed with mAb-1 (nm) (hPDGFRb.mmh [1]): 0.31 nm
- Response of mAb-2 Binding to hPDGFRβ.mmh Pre-Complexed with mAb-1 (nm) (hPDGFRb.mmh [2]): 0.28 nm
- Kd (hPDGFRb.mmh [3]): 1160 pM
- koff (hPDGFRb.mmh [3]): 0.000169 s⁻¹
- kon (hPDGFRb.mmh [3]): 145000 M⁻¹ s⁻¹
- t1/2 (hPDGFRb.mmh [3]): 1.13 h
- Kd (human PDGFRb.hFc): 230 pM
- koff (human PDGFRb.hFc): 5.48e-05 s⁻¹
- kon (human PDGFRb.hFc): 238000 M⁻¹ s⁻¹
- t1/2 (human PDGFRb.hFc): 3.52 h
- Kd [4]: 987 pM
- koff [4]: 0.000164 s⁻¹
- kon [4]: 166000 M⁻¹ s⁻¹
- t1/2 [4]: 1.18 h
- binding result [5]: no binding (tested: 50nM)
- % Maximum Blocking (hPDGFRb.mmh [6]): 91%
- IC50 (hPDGFRb.mmh [6]): 97 pM
- Response of mAb-2 Binding to hPDGFRβ.mmh Pre-Complexed with mAb-1 (nm) (hPDGFRb.mmh [7]): 0.35 nm
- Response of mAb-2 Binding to hPDGFRβ.mmh Pre-Complexed with mAb-1 (nm) (hPDGFRb.mmh [8]): 0.34 nm
B1: H4H3099S (antibody, human IgG4, V domains shown)
VH: QITLKESGPTLVKPTQTLTLTCTFSGFSLTTTGVGVGWIRQPPGKALEWLALIYWNDLKRYSPSLKNRLTITKDTSRHQVVLTMTNMDPMDTATYYCAHRPLYYGSGSGWFDPWGPGTTVTVSS
VL: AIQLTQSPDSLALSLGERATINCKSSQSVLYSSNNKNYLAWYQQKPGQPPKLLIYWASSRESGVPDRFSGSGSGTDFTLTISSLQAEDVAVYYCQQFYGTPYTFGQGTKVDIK
notes: human IgG4 Fc (H4H prefix)

- Response of mAb-2 Binding to hPDGFRβ.mmh Pre-Complexed with mAb-1 (nm) (hPDGFRb.mmh [9]): 0.25 nm
- Response of mAb-2 Binding to hPDGFRβ.mmh Pre-Complexed with mAb-1 (nm) (hPDGFRb.mmh [1]): 0.02 nm
- Response of mAb-2 Binding to hPDGFRβ.mmh Pre-Complexed with mAb-1 (nm) (hPDGFRb.mmh [2]): -0.01 nm
- Response of mAb-2 Binding to hPDGFRβ.mmh Pre-Complexed with mAb-1 (nm) (hPDGFRb.mmh [10]): 0.23 nm
- Response of mAb-2 Binding to hPDGFRβ.mmh Pre-Complexed with mAb-1 (nm) (hPDGFRb.mmh [11]): 0.25 nm
- Kd (hPDGFRb.mmh [3]): 1560 pM
- koff (hPDGFRb.mmh [3]): 0.000257 s⁻¹
- kon (hPDGFRb.mmh [3]): 165000 M⁻¹ s⁻¹
- t1/2 (hPDGFRb.mmh [3]): 0.75 h
- Kd (human PDGFRb.hFc): 256 pM
- koff (human PDGFRb.hFc): 6.2e-05 s⁻¹
- kon (human PDGFRb.hFc): 242000 M⁻¹ s⁻¹
- t1/2 (human PDGFRb.hFc): 3.1 h
- Kd [4]: 1630 pM
- koff [4]: 0.000289 s⁻¹
- kon [4]: 177000 M⁻¹ s⁻¹
- t1/2 [4]: 0.667 h
- binding result [5]: no binding (tested: 50nM)
- % Maximum Blocking (hPDGFRb.mmh [6]): 85%
- IC50 (hPDGFRb.mmh [6]): 120 pM
- Response of mAb-2 Binding to hPDGFRβ.mmh Pre-Complexed with mAb-1 (nm) (hPDGFRb.mmh [8]): 0.02 nm
B2: H4H3094P (antibody, human IgG4, V domains shown)
VH: EVQLVESGGGLVQPGGSLRLSCAASGFTFSSYWMSWVRQAPGKGLEWVANMNQDGSETHYVDSVKGRLSISRDNAKKSLFLHMNSLRAEDTAVYFCARDLVPPRQDDYYYYFGMDVWGHGTTVTVSS
VL: DIQMTQSPSTLSASVGDRVTITCRASQSISDWLAWYQQKPGKAPKLLIFKASTLESGVPSRFSGSGSGTEFTLTISSLQPDDFATYYCQQYNSYSRTFGQGTKVEIK
notes: also called H4H3394P

- Response of mAb-2 Binding to hPDGFRβ.mmh Pre-Complexed with mAb-1 (nm) (hPDGFRb.mmh [9]): 0.26 nm
- Response of mAb-2 Binding to hPDGFRβ.mmh Pre-Complexed with mAb-1 (nm) (hPDGFRb.mmh [10]): 0.24 nm
- Response of mAb-2 Binding to hPDGFRβ.mmh Pre-Complexed with mAb-1 (nm) (hPDGFRb.mmh [11]): 0.27 nm
- Kd (hPDGFRb.mmh [3]): 1260 pM
- koff (hPDGFRb.mmh [3]): 0.000358 s⁻¹
- kon (hPDGFRb.mmh [3]): 283000 M⁻¹ s⁻¹
- t1/2 (hPDGFRb.mmh [3]): 0.533 h
- Kd (human PDGFRb.hFc): 148 pM
- koff (human PDGFRb.hFc): 8.93e-05 s⁻¹
- kon (human PDGFRb.hFc): 600000 M⁻¹ s⁻¹
- t1/2 (human PDGFRb.hFc): 2.15 h
- Kd [4]: 1660 pM
- koff [4]: 0.000472 s⁻¹
- kon [4]: 284000 M⁻¹ s⁻¹
- t1/2 [4]: 0.4 h
- binding result [5]: no binding (tested: 50nM)
- % Maximum Blocking (hPDGFRb.mmh [6]): 86%
- IC50 (hPDGFRb.mmh [6]): 120 pM
- Response of mAb-2 Binding to hPDGFRβ.mmh Pre-Complexed with mAb-1 (nm) (hPDGFRb.mmh [7]): 0 nm
- Response of mAb-2 Binding to hPDGFRβ.mmh Pre-Complexed with mAb-1 (nm) (hPDGFRb.mmh [8]): 0.02 nm
B3: H4H3374N (antibody, human IgG4, V domains shown)
VH: QLQLQESGPGLVKPSETLSLTCTVSGGSITSSSYYWGWIRQPPGKGLEWIGSIYYRGSTNYNPSLKSRVTISVDSSKNQFYLKVSSVTAVDTAVYYCARQNGAARPSWFDPWGQGTLVTVSS
VL: EIVLTQSPDTISLSPGERATLSCRASQSISSIYLAWYQQKPGQAPRLLIYGASSRVTGIPDRFSVSGSGTDFTLTISRLEPEDFAVYYCQHYGISPFTFGPGTKVDIR
notes: human IgG4 Fc (H4H prefix)

- Response of mAb-2 Binding to hPDGFRβ.mmh Pre-Complexed with mAb-1 (nm) (hPDGFRb.mmh [9]): 0.01 nm
- Response of mAb-2 Binding to hPDGFRβ.mmh Pre-Complexed with mAb-1 (nm) (hPDGFRb.mmh [1]): 0.24 nm
- Response of mAb-2 Binding to hPDGFRβ.mmh Pre-Complexed with mAb-1 (nm) (hPDGFRb.mmh [2]): 0.22 nm
- Response of mAb-2 Binding to hPDGFRβ.mmh Pre-Complexed with mAb-1 (nm) (hPDGFRb.mmh [10]): 0 nm
- Response of mAb-2 Binding to hPDGFRβ.mmh Pre-Complexed with mAb-1 (nm) (hPDGFRb.mmh [11]): 0 nm
- Kd (hPDGFRb.mmh [3]): 1810 pM
- koff (hPDGFRb.mmh [3]): 0.000109 s⁻¹
- kon (hPDGFRb.mmh [3]): 59900 M⁻¹ s⁻¹
- t1/2 (hPDGFRb.mmh [3]): 1.77 h
- Kd (human PDGFRb.hFc): 248 pM
- koff (human PDGFRb.hFc): 3.42e-05 s⁻¹
- kon (human PDGFRb.hFc): 138000 M⁻¹ s⁻¹
- t1/2 (human PDGFRb.hFc): 5.63 h
- Kd [4]: 1820 pM
- koff [4]: 0.000111 s⁻¹
- kon [4]: 61200 M⁻¹ s⁻¹
- t1/2 [4]: 1.73 h
- binding result [5]: no binding (tested: 50nM)
- % Maximum Blocking (hPDGFRb.mmh [6]): 86%
- IC50 (hPDGFRb.mmh [6]): 300 pM
- Response of mAb-2 Binding to hPDGFRβ.mmh Pre-Complexed with mAb-1 (nm) (hPDGFRb.mmh [7]): 0.27 nm
- Response of mAb-2 Binding to hPDGFRβ.mmh Pre-Complexed with mAb-1 (nm) (hPDGFRb.mmh [8]): 0.25 nm
B4: H4H3305N (antibody, human IgG4, V domains shown)
VH: QLQLQESGPGLVKPSETLSLTCIVSGGSISSSSYYWGWIRQPPGKGLEWIGSLYYSGITFYNPSLKSRVTISVDTSKNQFSLTLTSVTAADTAVFYCARHRVMASSPFDHWGQGTLVTVSS
VL: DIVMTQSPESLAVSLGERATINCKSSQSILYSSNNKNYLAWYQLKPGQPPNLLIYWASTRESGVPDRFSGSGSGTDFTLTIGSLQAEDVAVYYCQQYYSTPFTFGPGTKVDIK
notes: human IgG4 Fc (H4H prefix)
